Kd data for 1 substance are collected here from article PMC5696648.

The test system of series [1] is LexA WT (Escherichia coli). As to the kind of experiment: EMSA. In general terms: Mobility shift assays separate free from complexed probe on a gel.
Series [2] deals with LexA S119A (Escherichia coli). Put plainly: EMSA.

Broadly, the Kd is a measure of binding affinity in units of concentration. As for 44-bp SOS consensus operator duplex, the Kd in series [1] was determined as 47 nM; in series [2], 43 nM.
